Values quoted from earlier work in PMC3125604.

Target: Prolactin receptor (site 2) (Homo sapiens) (UniProt P16471)
Test: surface plasmon resonance

Chain of UniProt P16471 (P16471 25-234): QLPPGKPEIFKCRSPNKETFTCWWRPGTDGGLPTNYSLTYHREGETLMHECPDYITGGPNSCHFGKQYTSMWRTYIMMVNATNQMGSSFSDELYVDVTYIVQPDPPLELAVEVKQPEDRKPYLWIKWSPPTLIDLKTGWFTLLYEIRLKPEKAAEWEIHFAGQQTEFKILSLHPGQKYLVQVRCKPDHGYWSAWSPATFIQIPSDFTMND

Kd: 33 µM
Substance: Prolactin (hPRL) (from UniProt P01236)
